The target of test [1] is HLA-A*02:01 presented KRAS^G12D epitope on cells (human). The experiment in a line: cell-based or functional assay.
Test [2] concerns the target HLA-A*02:01 presented KRAS^G12V epitope on cells (human). The experiment in a line: cell-based or functional assay.
Test [3] has as its target HLA-A*02:01 presented KRAS^wild type epitope on cells (human). Briefly: cell-based or functional assay.
Test [4] concerns the target T1, KRAS wild type peptide on HLA-A*02:01 (human).
T1 peptide: KLVVVGAGGV
Briefly: killing. The procedure: (§1) KTCR1, KRAS^G12V-specific, HLA-A*02:01-restricted TCR and KTCR2 and KTCR3, KRAS^G12D-specific, HLA-A*02:01-restricted TCRs were co cultured with K562-A*02:01 antigen presenting cells which were peptide pulsed with either the KRAS^G12D, KRAS^G12V, KRAS^WT peptide (10 μg/mL) for 5 hours at an effector to target cell ratio of 5:1.

For test [5], the target named is T2, KRAS G12V peptide on HLA-A*02:01 (human).
T2 peptide: KLVVVGAVGV
Briefly: multimer staining.

The target of test [6] is T3, KRAS G12D peptide on HLA-A*02:01 (human).
T3 peptide: KLVVVGADGV
The experiment in a line: multimer staining.

Test [7] deals with A*02:01-KRAS^G12V tetramer (human) (UniProt P61769). The experiment in a line: tetramer staining of TCR-transduced T cells, flow cytometry (FIG. 24).
Test [8] concerns the target T2, KRAS G12V peptide on HLA-A*02:01. Briefly: killing. The procedure: as §1
Test [9] deals with T3, KRAS G12D peptide on HLA-A*02:01. Briefly: killing. The procedure: as §1

“And” between values parts separate entries of the source, which are not always exact repeats. Equal values may be shown once. Where only a bound is given, the exact number is not on record here.

B1: KTCR-1 (TCR, V domains shown)
Valpha: TQLLEQSPQFLSIQEGENLTVYCNSSSVFSSLQWYRQEPGEGPVLLVTVVTGGEVKKLKRLTFQFGDARKDSSLHITAAQPGDTGLYLCAGEFESNAGNMLTFGGGTRLMVKP
Vbeta: DGGITQSPKYLFRKEGQNVTLSCEQNLNHDAMYWYRQDPGQGLRLIYYSQIVNDFQKGDIAEGYSVSREKKESFPLTVTSAQKNPTAFYLCASSIWLGPKGPGELFFGEGSRLTVL
On to B1, for which, in test [1], the IFNγ ELISpot, KTCR-1 CD8+ T cells co-cultured with PANC-1 (HLA-A*02:01^+ KRAS^G12D), Mean (SFU of IFNγ/2.0 × 10^4 cell input) is 19.5; the IFNγ ELISpot, KTCR-1 CD8+ T cells co-cultured with PANC-1 (HLA-A*02:01^+ KRAS^G12D), replicate (SFU of IFNγ/2.0 × 10^4 cell input) was 13 and 18; the Mean % cytotoxicity (cell lysis) of K562 A*02:01 + KRAS^G12D target cells, FVS780 flow cytometry, 5 hours, effector to target 5:1 was 4%. Further, in test [2], the IFNγ ELISpot, KTCR-1 CD8+ T cells co-cultured with CFPAC-1 (HLA-A*02:01^+ KRAS^G12V), Mean (SFU of IFNγ/2.0 × 10^4 cell input) worked out at 42; the IFNγ ELISpot, KTCR-1 CD8+ T cells co-cultured with CFPAC-1 (HLA-A*02:01^+ KRAS^G12V), replicate (SFU of IFNγ/2.0 × 10^4 cell input) is 52 and 42; the Mean % cytotoxicity (cell lysis) of K562 A*02:01 + KRAS^G12V target cells, FVS780 flow cytometry, 5 hours, effector to target 5:1 is 16.5%. For the same molecule, the Mean % cytotoxicity (cell lysis) of K562 + KRAS^Wild type target cells, FVS780 flow cytometry, 5 hours, effector to target 5:1 in [3] came to 2.9%. In [4], the binding result is “no recognition”. Also, the binding result in test [5] is listed as “recognises”. Moreover, the binding result in [6] is listed as “no recognition”. This molecule also came in with a percent of TCR transduced T cells tetramer positive in test [7] of over 90%.

B2: KTCR-3 (TCR, V domains shown)
Valpha: TQLLEQSPQFLSIQEGENLTVYCNSSSVFSSLQWYRQEPGEGPVLLVTVVTGGEVKKLKRLTFQFGDARKDSSLHITAAQPGDTGLYLCAGEFESNAGNMLTFGGGTRLMVKP
Vbeta: DTEVTQTPKHLVMGMTNKKSLKCEQHMGHRAMYWYKQKAKKPPELMFVYSYEKLSINESVPSRFSPECPNSSLLNLHLHALQPEDSALYLCASSLQITTDGYTFGSGTRLTVV
In the case of B2, in [1], the IFNγ ELISpot, KTCR-3 CD8+ T cells co-cultured with PANC-1 (HLA-A*02:01^+ KRAS^G12D), Mean (SFU of IFNγ/2.0 × 10^4 cell input) is 63; the IFNγ ELISpot, KTCR-3 CD8+ T cells co-cultured with PANC-1 (HLA-A*02:01^+ KRAS^G12D), replicate (SFU of IFNγ/2.0 × 10^4 cell input) was 73 and 53; the Mean % cytotoxicity (cell lysis) of K562 A*02:01 + KRAS^G12D target cells, FVS780 flow cytometry, 5 hours, effector to target 5:1 stood at 16.3%. Moreover, in test [2], the IFNγ ELISpot, KTCR-3 CD8+ T cells co-cultured with CFPAC-1 (HLA-A*02:01^+ KRAS^G12V), Mean (SFU of IFNγ/2.0 × 10^4 cell input) turned out to be 21; the IFNγ ELISpot, KTCR-3 CD8+ T cells co-cultured with CFPAC-1 (HLA-A*02:01^+ KRAS^G12V), replicate (SFU of IFNγ/2.0 × 10^4 cell input) was 13 and 19; the Mean % cytotoxicity (cell lysis) of K562 A*02:01 + KRAS^G12V target cells, FVS780 flow cytometry, 5 hours, effector to target 5:1 was 2%. The Mean % cytotoxicity (cell lysis) of K562 + KRAS^Wild type target cells, FVS780 flow cytometry, 5 hours, effector to target 5:1 in test [3] is 2.82%. In [8], the binding result is given as “no recognition”. In test [9], the binding result is “recognises”. In test [4], the binding result is “no recognition”.

B3: KTCR-2 (TCR, V domains shown)
Valpha: GESVGLHLPTLSVQEGDNSIINCAYSNSASDYFIWYKQESGKGPQFIIDIRSNMDKRQGQRVTVLLNKTVKHLSLQIAATQPGDSAVYFCAENRDTDKLIFGTGTRLQVFP
Vbeta: DGGITQSPKYLFRKEGQNVTLSCEQNLNHDAMYWYRQDPGQGLRLIYYSQIVNDFQKGDIAEGYSVSREKKESFPLTVTSAQKNPTAFYLCASSIWLGPKGPGELFFGEGSRLTVL
With B3, in test [1], the IFNγ ELISpot, KTCR-2 CD8+ T cells co-cultured with PANC-1 (HLA-A*02:01^+ KRAS^G12D), Mean (SFU of IFNγ/2.0 × 10^4 cell input) was 98.5; the IFNγ ELISpot, KTCR-2 CD8+ T cells co-cultured with PANC-1 (HLA-A*02:01^+ KRAS^G12D), replicate (SFU of IFNγ/2.0 × 10^4 cell input) was 105 and 92; the Mean % cytotoxicity (cell lysis) of K562 A*02:01 + KRAS^G12D target cells, FVS780 flow cytometry, 5 hours, effector to target 5:1 worked out at 19.1%. In test [2], the IFNγ ELISpot, KTCR-2 CD8+ T cells co-cultured with CFPAC-1 (HLA-A*02:01^+ KRAS^G12V), Mean (SFU of IFNγ/2.0 × 10^4 cell input) was 11.5; the IFNγ ELISpot, KTCR-2 CD8+ T cells co-cultured with CFPAC-1 (HLA-A*02:01^+ KRAS^G12V), replicate (SFU of IFNγ/2.0 × 10^4 cell input) is 8 and 15; the Mean % cytotoxicity (cell lysis) of K562 A*02:01 + KRAS^G12V target cells, FVS780 flow cytometry, 5 hours, effector to target 5:1 stood at 4%. In addition, in [3], the Mean % cytotoxicity (cell lysis) of K562 + KRAS^Wild type target cells, FVS780 flow cytometry, 5 hours, effector to target 5:1 came out at 4.79%. For the same molecule, in test [8], the binding result was “no recognition”. In [9], the binding result is listed as “recognises”. Further, in test [4], the binding result is given as “no recognition”.

These data come from US20220227883A1 (published 2022).
